Experiment: soluble on expression in E. coli; label from the status in PepcDB or PDB records

Row | Sequence | soluble on expression in E. coli
1 | SHRRFRRHWLVSPSIWWHNRRILDFMPSENRLNGIDVCLNIGALERGSDCKRREERDMAGQAEQMAAELDRHGAAVFFREYPNADHGNVPFYSLTDCVEYLRKAWQR | not soluble
2 | MMLSALVYTYPYKRSSGFERLRDRIHRKRHRHQKPSVMNETDELYEMSMVTQKSDDDSDLASRIRSEKSIPSTLTTPPTVTYHRRHHHHHKKNRREKNEELCESQRKIVELNTQSHEFDPPFVVEVRCLNSQSPIGSLLSGQEQTCFKGMLRCVQQYADVHVSRRSVGSIHWHPFTIPDAPISCQCMWPVDRYGHQEF | soluble
3 | MGHHHHHHSHMQHLENSSLFEGSLSKNLSLNSQALKENLYYEAGKMLAISLVHGGPSPGFFSKTLFNCLVYGPENTQPILDDVSDFDVAQIIIRINTATTVADLKSIINECYNYLELIGCLRLITTLSDKYMLVKDILGYHVIQRVHTPFESFKQGLKTLGVLEKIQAYPEAFCSILCHKPESLSAKILSELFTVHTLPDVKALGFWNSYLQAVEDGKSTATMEDILIFATGCSSIPPAGFKPTPSIECLHVDFPVGNKCNNCLAIPITNTYKEFQENMDFTIRNTLRLEKEESSHYIGH | not soluble
4 | LKEDKEKYPIFVFIHKDKVTISIDTTGDALHKRGYREKANKAPIRETLAAGLIYLTPWKAGRVLVDPMCGSGTILIEAAMIGINMAPGLNREFISEKWRTLDKKIWWDVRKDAFNKIDNESKFKIYGYDIDEESIDIARENAEIAGVDEYIEFNVGDATQFKSEDEFGFIITNPPYGERLEDKDSVKQLYKELGYAFRKLKNWSYYLITSYEDFEYEFGQKADKKRKLYNGMLKTNFFQYPGPKPPRNNK | not soluble
5 | AIIWRRAANLVLLDETGRRVDDLAFRSERADLAVIAGEGAERAVPEALEILSAARPILNRVRGLVRMGERRWDIVLDRGQRVLLPVEDPVAAVERMIALDEAEDLLDRDVISVDLR | not soluble
6 | GSPGILMASQGTKRSYEQMETGGERQNATEIRASVGRMVGGIGRFYIQMCTELKLSDQEGRLIQNSITIERMVLSAFDERRNRYLEEHPSAGKDPKKTGGPIYRRRDGKWVRELILYDKEEIRRIWRQANNGEDATAGLTHMMIWHSNLNDATYQRTRALVRTGMDPRMCSLMQGSTLPRRSGAAGAAIKGVGTMVMELIRMIKRGINDRNFWRGENGRRTRIAYERMCNILKGKFQTAAQKAMMDQVRESRNPGNAEIEDLIFLARSALILRGSIAHKSCLPACVYGLAVASGYDFEREGYSLVGIDPFRLLQNSQVFSLIRPNENPAHKSQLVWMACHSAAFEDLRVSSFIRGTRVIPRGQLSTRGVQIASNENVEAMDSSTLELRSRYWAIRTRSGGNTNQQRASAGQISVQPTFSVQRNLPFERATIMAAFKGNTEGRTSDMRTEIIRMMESARPEDVSFQGRGVFELSDEKATNPIVPSFDMSNEGSYFFGDNAEEYDN | soluble
7 | MSLFFTFMRGVVRVILFVINGNAHYENKEKLPKDQNYVLVAPHRTWWEPLYLAVAGSPKKFSFMAKKELFKNPVLRFILKHANAFPVDREKPGPSAIKTPVKILKNSDLSLIMFPSGTRHSSELKGGVALIAKMGRVPIVPSVYQGPLTLKELFKRKKVTVRFGEPIDISDIKKMDKDGLAEVERRMQEAFDQLDKEIDPTFKYESTEEGHHHHHH | soluble
8 | QVQLQQSGAELMKPGASVKISCKATGYTFSSYWIAWVKQRPGHGLEWIGEILPGSGSTNYNEKFKGKATFTADTSSNTAYMQLSSLTSEDSAVYYCARSPYYYGNWDYWGQGTTLTVSSAKTTPPSVYPLAPGSAAQTNSMVTLGCLVKGYFPEPVTVTWNSGSLSSGVHTFPAVLQSDLYTLSSSVTVPSSTWPSETVTCNVAHPASSTKVDKKIVPRDC | soluble
9 | MNTSLFKQERQKYIPKLPNILKKDFNNISLVYGENTEAIQDRQALKEFFKNTYGLPIISFTEGESSLSFSKALNIGIILSGGPAPGGHNVISGVFDAIKKFNPNSKLFGFKGGPLGLLENDKIELTESLINSYRNTGGFDIVSSGRTKIETEEHYNKALFVAKENNLNAIIIIGGDDSNTNAAILAEYFKKNGENIQVIGVPKTIDADLRNDHIEISFGFDSATKIYSELIGNLCRDAMSTKKYWHFVKLMGRSASHVALECALKTHPNICIVSEEVLAKKKTLSEIIDEMVSVILKRSLNGDNFGVVIVPEGLIEFIPEVKSLMLELCDIFDKNEGEFKGLNIEKMKEIFVAKLSDYMKGVYLSLPLFIQFELIKSILERDPHGNFNVSRVPTEKLFIEMIQSRLNDMKKRGEYKGSFTPVDHFFGYEGRSAFPSNFDSDYCYSLGYNAVVLILNGLTGYMSCIKNLNLKPTDWIAGGVPLTMLMNMEERYGEKKPVIKKALVDLEGRPFKEFVKNRDKWALNNLYLYPGPVQYFGSSEIVDEITETLKLELFK | soluble
10 | MKKVYLFKLKFNTPYGLRVGGPKEDISTLTPLKIGQHYVIPSSSWKGIFRRTTEVLITNPNHFRGHEGEDVTDDGSLDELLEAKGLENKNDENVRKERKRFIAMWNCPVERLYGSEYFASAVTFSDTLIDAEINQRTHVVIDRKTRKSEEKHLYSEQIVNVNSVRVKVIVRDRIDDWIKTLKFLSEFGTFVGGGKSRGIGYAVLDWKESEYAEVDGLTRKIMFKPLDELKL | soluble
11 | MSTRPEVFDLIVIGGGPGGSTLASFVAMRGHRVLLLEREAFPRHQIGESLLPATVHGICAMLGLTDEMKRAGFPIKRGGTFRWGKEPEPWTFGFTRHPDDPYGFAYQVERARFDDMLLRNSERKGVDVRERHEVIDVLFEGERAVGVRYRNTEGVELMAHARFIVDASGNRTRVSQAVGERVYSRFFQNVALYGYFENGKRLPAPRQGNILSAAFQDGWFWYIPLSDTLTSVGAVVSREAAEAIKDGHEAALLRYIDRCPIIKEYLAPATRVTTGDYGEIRIRKDYSYCNTSFWKNGMALVGDAACFVDPVFSSGVHLATYSALLVARAINTCLAGEMSEQRCFEEFERRYRREYGNFYQFLVAFYDMNQDTDSYFWSARKIINTEERANEAFVRLIAGRSNLDEPVFQSVAKDFFTEREGFGAWFGGLVTSMAKGDGGGLMVGEGATDATESTGFAPENFMQGFTREITELQHLAMFGEDRGPETPLWSGGLVPSRDGLAWAVESGEDAAG | soluble
12 | AHHHHHHGSDKVYLTWWQVDRAIFALAEKLREYKPDVIVGIARGGLIPAVRLSHILGDIPLKVIDVKFYKGIEERGEKPVITIPIHGDLKDKKVVIVDDVSDTGKTLEVVIEEVKKLGAKEVKVACLAMKPWTSVVPDYYVFRTEKWIVFPWEEFPVIERE | not soluble
13 | MSNVTPKLVWPEDDYVDESLLEDHQGPARLEYDALVMLANLPPLTEEIMSRCPALPVKTRSTPEYTLVLDLDETLVHCSLTPLDNATMVFPVVFQNITYQVYVRLRPHLRTFLSRMAKTFEIIIFTASKKVYANKLCDILDPRKNHIRHRLFREHCVCVFGNYVKDLTILGRDPSKTMILDNAVQSFAYQLDNGIPIESWFHDRNDTELLKLCSFLEAIPTLGRDVREILRHKYRLRDHIPFYSIIHQQEGPGRLPLLEVAPPPVTEPNDEQLITQVVQKHPQLVQG | soluble
14 | MPLGSLFDKTYDEMHCNQKSWEMAERQLMEDAVNVALQKNNLTKDDIDLLLAGDLLNQNVTANYVARHLKIPFLCMFGACSTSMETVAVASALVDGGFAKRALAATSSHNATAERQFRYPTEYGGQKPDTATSTVTGSGAVVISQTPGDIQITSATVGKVSDLGITDPFDMGSAMAPAAADTIKQHFKDLNRTADDYDLILTGDLSGVGSPIVKDILKEDGYPVGTKHDDCGLLIYTPDQQVFAGGSGCACSAVVTYSHIFKQLREGKLNRVFVVATGALLSPTMIQQKETIPTIAHGVVFERAGGASLEHHHHHH | not soluble
15 | MSKGFAFKPSALAAKADKLWSDSKTEYTATHSTINHVHLEKKSLGDIIPKSADAPVANEKEVEEAPQAFVFGSKISDRVVNKEGDSTKPGGSDEKTMTATELFQNAVKKDDDKNGAKNFRKEAEQEAERAKEAEKQHAGTSSVEITTGEENDTNIFQAPCKIWAFDKLKNAYSEKGVCNLRINKRVENGLTHHRIVARTSSGTLRVIINSKIFSDMLLERVDKRIRISAMGPEISGVQIFLLKIGFTKTETIPDSDIFYNIMSDLLKLEKGENSRKRKADCDLNASTVKIKDGKEEEEGDQDQVDEGFVIVNKPTEDEVKEEKPAVTAAEESASSSTPSE | not soluble
16 | MAARPITLGIDLGTTSVKAALLRAAPDDPSGFAVLASCARAARAEAAVESAVAGPQGREQDVSRILQALHECLAALPRPQLRSVVGIGVSGQMHGVVFWKTGQGCEWTEGGITPVFEPRAVSHLVTWQDGRCSSEFLASLPQPKSHLSVATGFGCATIFWLLKYRPEFLKSYDAAGTIHDYVVAMLCGLPRPLMSDQNAASWGYFNTQSQSWNVETLRSSGFPVHLLPDIAEPGSVAGRTSHMWFEIPKGTQVGVALGDLQASVYSCMAQRTDAVLNISTSVQLAASMPSGFQPAQTPDPTAPVAYFPYFNRTYLGVAASLNGGNVLATFVHMLVQWMADLGLEVEESTVYSRMIQAAVQQRDTHLTITPTVLGERHLPDQLASVTRISSSDLSLGHVTRALCRGIVQNLHSMLPIQQLQEWGVERVMGSGSALSRNDVLKQEVQRAFPLPMSFGQDVDAAVGAALVMLRRHLNQKES | not soluble
17 | MSLRPYQEKARLFLNGEMSATLFVELGIATSCRKGLKKGFFNQDDFFAYQCDEWGLYGVFDGHGPGGHLVANFVQWHLPNIIHEYMITSEPRVALHRAFVEVNSMLTDASEAQKFDSASSGSTASVVLHRRQERKLFLAHVGDSRVVLARRNHQGRLVADCVTKDHKPDDPVERARIERHGGEVRRPTGHIPHRVFLKGKNYPGLAMSRSIGDSMGHCAGVTSEPDISDIDLLEDRDEVVIMCTDGVWEFMTPDEVVDIVSRYSIYQADEAAQELSREAWKRWLEQDGHSVDDITVQIIHLFPPAEEKHPEGHHHHHH | soluble
18 | MGSDKIHHHHHHMENIALLGIDLGKHIFHVHAQDKAGHQLWRRKLNRKQLVELVANTPACRIVMESCSGAHHFARRFLQFGHDVKLIAPQYVKPFVKGNKNDFVDAEAICEAASRPAMRFAAVRNEQQQTISALHRTRDMLIRSRGSAHNQIHAYLVEFGVAIGTGPAAIRKLPAVLQAMTYRRALSPCWSNFGITFFISTSRSPLSSAN | not soluble
19 | MFVDQVKISLKAGDGGNGITAYRREKYVPFGGPAGGDGGKGASVVFEVDEGLRTLLDFRYQRHFKASKGENGQSSNMHGKNAEDLVLKVPPGTIIKNVETDEVLADLVEDGQRAVVAKGGRGGRGNSRFATPRNPAPDFSEKGEPGEELDVSLELKLLADVGLVGFPSVGKSTLLSIVSKAKPKIGAYHFTTIKPNLGVVSTPDQRSFVMADLPGLIEGASDGVGLGHQFLRHVERTKVIVHMIDMSGSEGREPIEDYKVINQELAAYEQRLEDRPQIVVANKMDLPESQDNLNLFKEEIGEDVPVIPVSTITRDNIDQLLYAIADKLEEYKDVDITVEEEESVGINRVLYKHTPSQDKFTISRDDDGAYVVSGNAIERMFKMTDFNSDPAVRRFARQMRSMGIDDALRERGCKNGDIVRILGGEFEFVE | not soluble
20 | MSLNILIIGPSWVGDMMMSHSLYQQLKIQYPNCNIDVMAPNWCKPLLARMPEVRKAIEMPLGHGAFELGTRYRLGKSLREQYDMAIVLPNSLKSAFIPFFAKIVHRRGWKGESRYILLNDLRANKKDYPMMVQRYVALAFEKDVIPKADDIPVLKPYLTVEPAQQAETLKKFEKQTALLGERPIIGFCPGAEFGPAKRWPHYHYAKLAEMLITQGYAVALFGSAKDEPVGEEIRQALPEELREFCVNLAGKTNLNEAVDLIANCTAVVTNDSGLMHIAAAVNRPLIALYGPTSPQYTPPLSDKATIIRLIEGELIKVRKGDKEGGYHQSLIDITPEMALEKLNELLAKEGGSHHHHHH | soluble

Source: the DeepSol protein solubility set
